# The RNAGym collection of RNA variant scans (doi:10.1073/pnas.2313332121)
# B1: TPR t1 (parent)
# chain: GACCAAUCUGCCCUCAGAGCUCGAGAACAUCUUCGGAUGCAGAGGAGGCAGGCUUCGGUGGCGCGAUAGCGCCAACGUCCUCAACCUCCAAUGCAUCCCACCACAUGAUGAUGCCUGAAGAGCCUUGGUUUUUUG
# Variants of: B1
# Assay: polymerase ribozyme fitness, log enrichment relative to wild type (log ratio); higher = more active; in vitro selection for triplet polymerase activity
# In short: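 Libraries of mutants in each subunit of a heterodimeric triplet polymerase ribozyme were generated by PCR and transcribed. In triplicate, each went through one in vitro selection round: annealing with biotinylated primer, partner subunit and triplets; frozen incubation at −7 °C; gel excision of extended constructs; streptavidin-bead capture; RT-PCR. Fitness, taken from Illumina sequencing of input and output libraries, is the logarithm of a genotype's enrichment over wild-type enrichment, averaged across replicates with inverse-variance weights. The logarithm is base 2, and genotypes needed ≥10 input reads and ≥1 read per output to be kept.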
row,Variant,polymerase ribozyme fitness (log ratio)
1,C11G C73U C85A A111G,-0.304
2,C11U G52A A118G,-0.222
3,C11G A16U A24G G47C C72A A111C,-7.64
4,C11U A26U C49G C73U,-3.93
5,C11G A37U A41U A95C U106C C124A,-1.05
6,C11G C73U,0.123
7,C11G C73G,-0.268
8,C11U C20A U87A A91C A118U,-2.95
9,C11U A27U A103U G120C G122U,-5.67
10,C11G C40U G63A,-1.18
11,C11G C40G C70G C89U,-5.83
12,C11G C28G G58U,-2.76
13,C11A C64A A108U G110A,-6.85
14,C11G G17A U81A C85U G117C,-4.91
15,C11G C20G C73U U106A G107A,-5.37
16,C11A G39A U54A C72A,-1.51
17,C11G C34U C49A G61A C123U,-2.15
18,C11A G69U G93A G128U,-3.27
19,C11G G127C,-0.995
20,C11U C72U A83U C101G,-1.79
21,C11G A41U G71C A90G G110U G135A,-5.24
22,C11G C12A C40U C99U G117A C124G,-6.76
23,C11G A27G C85A U125A,-2.01
24,C11G A41U G47C U59A,-3.12

row,Variant,polymerase ribozyme fitness (log ratio)
1,C11G A27G G63C G93A,-3.72
2,C11A A95G,-1.37
3,C11U A26U A46C C49G C72U C86G,-6.59
4,C11U G69A,-2.2
5,C11G A18G C49G C56U,-3.38
6,C11G C22G A41G G128C,-5.82
7,C11G G52U C56G C102U A103C,-6.01
8,C11A A27G A41U C49G G61U,-3.34
9,C11G G51U C62A G71A C89U C97U,-6.66
10,C11G C40U C53U U87A A90U U112A G127C,-2.43
11,C11A G47U G71A A83G G107C C124U,-7.17
12,C11G A41C U87A G122A,-0.672
13,C11U C22G A26C,-3.57
14,C11U C22A C124U,-3.19
15,C11U C28G A83C C85U,-4.39
16,C11A A50G U126A,-3.95
17,C11G G63U C88A,-1.57
18,C11G C73U C80U,-0.636
19,C11G C15U G25C A111C A118G,-6.56
20,C11G U59A,0.0952
21,C11G C72A C79U A90G C101G A121C U131A,0.276
22,C11A G36U G48C,-3.57
23,C11U C88G C114A U126A,-5.99
24,C11G G63A C82G G117U C123G,-2.82

row,Variant,polymerase ribozyme fitness (log ratio)
1,C11U A41G U78G C97U,-1.63
2,C11A C12G C70A A111C,-3.93
3,C11U G48U G113A,-2.84
4,C11A C12A C28U C31G G52A G63C G113C U116A,-5.83
5,C11G G61A C124A,2.07
6,C11U C15G U112A,-2.98
7,C11G G35C G71U G110U,-7.04
8,C11G A43G U59A C64U,-2.3
9,C11A C94A U116A G120C,-0.809
10,C11A G48U G60U C123A,0.672
11,C11G C28G G60A A68C U81A U106C G127C,-6.42
12,C11A C28G G77U C98U G110U G135U,-3.7
13,C11A A111U,-4.43
14,C11G G36U G47U G63A U78G,-2.93
15,C11G A41C C56U G93A C123G G135U,-3.49
16,C11A C12A U14G A18C G63C C85U A103G U106A G107A A108C C114U G117C,-6.98
17,C11A U106A G110U,-1.4
18,C11U C12G C15U C70U,-1.83
19,C11U A29G C53U,-2.33
20,C11G C40A G48U C70U,-1.6
21,C11U C70A A121C,0.0688
22,C11A C72A C101A U126C,-3.38
23,C11U G19A C53G U55A A91C,-2.36
24,C11G U125A,-0.25

row,Variant,polymerase ribozyme fitness (log ratio)
1,C11A U78C,-0.895
2,C11A C20U G42C C53U,-4.13
3,C11A A18U A68G G120U,-4.2
4,C11A C56U A105U,-3.49
5,C11G G63A,-0.354
6,C11G G63C,-0.406
7,C11U A27U,-1.89
8,C11G C13A C88G,-2.71
9,C11A C12U U38A U78C U96A,-2.53
10,C11G G42U G45U G51C G120A U134G,-4.64
11,C11A A46C G63A U131G,-2.39
12,C11U G35U G39U C56A G71U G122A,-6.34
13,C11A C13A A74C,-2.72
14,C11A U78A G120A,1.31
15,C11G C62U C101G U131G,-3.31
16,C11U G39U C79U G93U,-2.7
17,C11G G36U A43U G61A G63A C115U U125A U132A,-6.45
18,C11A A121C,1.02
19,C11G C49A G61A G120U,2.28
20,C11G G69C,-1.7
21,C11G A29U A46G C72A A100C A119U,-3.42
22,C11G G61C A66U A75C C114U,-3.81
23,C11A G113A,-3.12
24,C11G G23C U32C G61A C86U U133A,-5.64

row,Variant,polymerase ribozyme fitness (log ratio)
1,C11U C40U G122A,0.00533
2,C11A C64U U78C C80U A83G,-4.97
3,C11G C28A,-2.78
4,C11G A27U C49A A84U C114A G120A U125A,-5.59
5,C11U C56G U112G,-0.0117
6,C11A A74G,-1.56
7,C11A U133A,-2.64
8,C11G C76U G120A,2.23
9,C11U G19A G61A U131G,-3.33
10,C11G A50C U92G C114A G122C U131C,-3.35
11,C11G G42U A84U,-1.53
12,C11G C72G C82G G117C,-3.64
13,C11A C70A A90G,-3.13
14,C11U A121G,1.13
15,C11G A50C U125A,-0.245
16,C11G A18G C89U U96A,-4.23
17,C11U C53U G110A U129A,-3.35
18,C11G C31G,-4.32
19,C11U C34G C89U A105C U106A,-4.08
20,C11A G42C C72A,-1.79
21,C11U C73U C114A C123U,-2.7
22,C11G G42C,-1.1
23,C11A U54G U81A,-2.11
24,C11G A18G C97U G110A,-3.11

row,Variant,polymerase ribozyme fitness (log ratio)
1,C11G U78C,0.168
2,C11G C15A G61U U125G,-0.123
3,C11G C13A C82G A84G,-1.63
4,C11U C12U A111C G122A,-0.0374
5,C11U C102U,-2.09
6,C11G C70U C79A,-1.87
7,C11G U126A,-0.924
8,C11G U126C,-0.774
9,C11U C22U U38C,-4.76
10,C11A A26G G71C C101A C114U,-6.79
11,C11U C15A A26G C53G G63U G120C,-4.53
12,C11U C89A,-2.85
13,C11U A18G G19C A43G G63U,-4.05
14,C11U G45A G48A,-2.77
15,C11G G19A U38G,-2.63
16,C11A G60U U112A A118U,0.776
17,C11A G71U C104A U129G G135U,-5.56
18,C11U C79G,-1.69
19,C11U A118G U133A,-0.694
20,C11U G44A C79U A119U,-1.69
21,C11A U87A,-1.66
22,C11U C15U G61A U78A G93A,-2.54
23,C11U A46U C86G C104U,-2.24
24,C11G C86G,-1.7

row,Variant,polymerase ribozyme fitness (log ratio)
1,C11G U54C G60U C86U,-0.56
2,C11G G44A A121U,1.52
3,C11A C40G U129A,-3.42
4,C11U C53A C97U,-1.37
5,C11G C56U A74U A84G G135U,-1.8
6,C11A G60A U112A A118U,0.704
7,C11G C13U C104A A111U,-3.99
8,C11G G36A G47C G117A U129A,-4.45
9,C11G U96G,-0.325
10,C11U A43U G60U A90C,-1.62
11,C11A A37C A50U,-2.75
12,C11A C56U,-1.61
13,C11U C34A,-2.54
14,C11A G61A G93A C101G U112A U132A,-1.04
15,C11A A27G,-6.66
16,C11A C49U C73A C86U A95G U106G C123U,-0.375
17,C11G A121G,1.78
18,C11G A121C,1.5
19,C11U C82A,-1.02
20,C11A C40A C49G C94U,-3.79
21,C11A C13G C115A,-6.59
22,C11G G17A G58A U106A U129A,-5.54
23,C11U A18C A29C C101A G110C,-7.19
